Test results reported in patent US20260061042A1, “POLYNUCLEOTIDE COMPOSITIONS AND USES THEREOF” (Pfizer Inc., priority 2024, published 2026).

Tested on: E. coli strain CFT073 expressing the fimbrial adhesin PapG
Test: PapG hemagglutination inhibition (HAI) assay on sera of mice immunized with PapG modRNA LNPs
Format: in vivo
Conditions: 50 μl IM; for Step Titer GMT (HAI): weeks 0, 4, bleed week 6, GMT of individual titers; for Step Titer Pool (HAI): weeks 0, 4, bleed week 6, serum pool
Description: Escherichia coli to the uroepithelium of human kidney. The PapG lectin binds to the globoside (GbO4) glycolipid, which is enriched in urinary tract tissue and consists of the tetrasacharide GalNAcβ1-3Galα1-4Galβ1-4Glc linked to ceramide. Here we present the use of a hemagglutination inhibition assay (HAI) to determine vaccine functional responses to protein subunit PapG or mRNA-expressed PapG antigens. In this assay the agglutination of human red blood cells (hRBCs) expressing GbO4 is caused by live E. coli CFT073 bacteria expressing PapG. The HAI assay measures the ability of PapG-elicited antibodies to prevent hRBC agglutination, exemplifying inhibition of the key bacterial adherence mechanism leading to clinical pyelonephritis. The assay was used to characterize the functional activity of PapG monoclonal antibodies (mAbs) raised against a PapG lectin domain subunit antigen. PapG HAI data from a mouse immunogenicity study are described that evaluated various 5 monovalent PapG modRNA LNPs and a PapG subunit comparator.
In this mouse study immunogenicity of different PapG mRNA constructs were evaluated. […]
iii. PapG Hemagglutination Inhibition Assay (HAI) 1. Preparation of Single Use Frozen E. coli CFT073 Banks Frozen bacterial stocks for use in the PapG HAI are stored at a concentration of ˜15 OD/mL. For stock preparation, take 6 ×100 μL of frozen parental strain CFT073 glycerol stock to seed six overnight cultures with ˜85 mL Luria's Broth (LB) each in 250 mL vented flasks. Flasks are shaken at 200 rpm and 37° C. overnight. On the same day, prepare 100 mL LB media with 30% glycerol and 0.4% sucrose by mixing […] 80% Glycerol with 0.8 mL 50% Sucrose in 64 mL LB and pre-chill at 4° C. After ˜16 h growth, determine the OD600 nm of each flask with the SpectraMax M5e plate reader by adding 100 μL culture to 900 μL LB (1:10 dilution). After reading the OD600, harvest cells by pelleting in a centrifuge at 4,000g, 4° C., for 30 minute. Determine the total OD of each of the six flasks, by multiplying the volume by OD/mL of each flask and divide by 15 OD to give the appropriate pellet resuspension volume. Discard supernatants and resuspend all pellets in the pre-chilled LB cryopreservant containing 30% glycerol and 0.4% sucrose, with a final volume as calculated above. Pool all resuspended pellets and mix gently, then aliquot into 1 mL/cryotube, and freeze at −70° C.
2. Preparing 10% hRBC Working Solution From Stock
Gently mix human red blood cells (hRBC) bottle (Rockland) by rocking ˜20×times, pipet out 10 mL of the hRBCs into a 15 ml conical tube. Centrifuge at 2,000 rpm(˜990×g) for 10 minutes and 4° C. Aspirate and discard the supernatant, then resuspend the pellet with 9 mL 4° C. PBS. The packed hRBCs in 15 mL conical tube should constitute roughly 1 mL of this total volume. Store these 10% hRBCs at 4° C. until use. […]
iv. PapG Hemagglutination Inhibition (HAI) Assay
The PapG hemagglutination inhibition (HAI) assay uses human red blood cells (hRBCs), which naturally express the PapG ligand GbO4 (globotetraosyl ceramide) on the cell surface, and the E. coli strain CFT073 expressing the fimbrial adhesin PapG. Upon mixing bacteria with hRBCs, […] cells remain suspended (presenting as a cloudy well), while no binding results in the red blood cells falling out of solution towards the center of the well (observed as pellet).
The total final well volume is 100 μL, with serum dilutions comprising 25 μL of this volume, strain CFT073 cells in […] volume, and hRBCs in a 50 μL volume. The assay plate is a V-bottom plate to which 25 μL 4° C. PBS is initially added to all wells. The positive control wells receive an additional 25 μL 4° C. PBS. The no-serum negative control consists of E. coli CFT073 cells plus hRBCs only (resulting agglutinated well appears cloudy). To accommodate pre-diluted sera transferred from the serum Master Dilution plate (MDP) an extra 5 μL 4° C. PBS is added to wells in Row A of the assay plate (columns 1 to 12). […]

Molecule | Step Titer GMT (HAI) (1 μg) | Step Titer Pool (HAI) (1 μg) | Step Titer GMT (HAI) (0.2 μg) | Step Titer Pool (HAI) (0.2 μg) | Step Titer GMT (HAI) (5 μg) | Step Titer Pool (HAI) (5 μg)
BMD562_PapG-DSF K172A_DAF-GPI: monovalent PapG modRNA LNP; RNA construct SEQ ID NO: 63 (nucleic acid, modRNA in LNP) AGGAAAUAAGAGAAAGAGGAUAAGACGACUAAGGAGACAUACAGAAUAAGAGGCAGCCACCAUGGAGACCGACACCCUCCUGCUGUGGGUGCUGUUACUGUGGGUGCCCGGUAGCACCGGCUGGAACAACAUCGUGUUCUACAGCCUGGGCAACGUGAACAGCUACCAAGGCGGCAACGUGGUGAUCACACAGAGACCUCAGUUCAUCACAAGCUGGAGACCCGGCAUCGCCACCGUGACCUGGAAUCAGUGCAACGGCCCCGAGUUCGCCGACGGCAGCUGGGCCUACUACAGAGAGUACAUCGCCUGGGUGGUGUUCCCCAAGAAGGUGAUGACCAAGAACGGCUACCCCCUGUUCAUCGAGGUGCACAACAAGGGCAGCUGGAGCGAGGAGAACACCGGCGACAGCGACAGCUACUUCUUCCUGAAGGGCUACAAGUGGGACGAGAGAGCCUUCGACGCCGGCAACCUGUGUCAGAAGCCGGGGGAGACGACCCGGCUUACAGAAAAGUUCAACGACAUCAUCUUCAAGGUGGCCCUGCCCGCCGACCUGCCCCUGGGCGACUACAGCGUGACCAUCCCCUACACAAGCGGCAUUCAGAGACACUUCGCUAGCUACCUGGGCGCUAGAUUCGCCAUCCCCUACAACGUGGCCAAGACCCUGCCUAGAGAGAACGAGAUGCUGUUCCUGUUCAAGAACAUCGGCGGCUGCAGACCUAGCGCUCAGAGCCUGGAGAUCAAGCACGGCGACCUGAGCAUCAACAGCGCCAACAACCACUACGCCGCUCAGACCCUGAGCGUGAGCUGCGACGUGCCCGCCAACAUCAGAUUCAUGCUGCUGAGAUCAACCACCCCCACCUACAGCCACGGCAAGAAGUUCAGCGUGGGCCUGGGCCACGGCUGGGACAGCAUCGUGAGCGUGAACGGCGUGGACACGGGCGAGACCACUAUGCGUUGGUACAAGGCCGGCACACAGAGCCUGACCAUCGGCAGCAGACUGUACGGCGAGAGCAGCAAGAUUCAACCGGGCGUGCUUAGUGGUUCCGCCACCCUGCUGAUGAUUCUGCCCGGCGGAAGCAGCGGCGGCGCCGACGUGCAGAUCAACAUCAGAGGCAACGUGUACAUACCCCCUUCGAGCGGAGGCGGCGGAUCGUCCGGCUCCGGGAGCAGCAGCGGCACCACACGGCUGCUGAGCGGCCACACCUGCUUCACCCUGACCGGCCUGCUGGGCACCCUGGUGACCAUGGGCCUGCUGACCUGAUGAGCUCGCUUUCUUGCUGUCCAAUUUCUAUUAAAGGUUCCUUUGUUCCCUAAGUCCAACUACUAAACUGGGGGAUAUUAUGAAGGGCCUUGAGCAUCUGGAUUCUGCCUAAUAAAAAACAUUUAUUUUCAUUGCAAAAAAAAAAAAAAAAAAAAAAAAAAAAAAAAAAAAAAAAAAAAAAAAAAAAAAAAAAAAAAAAAAAAAAAAAAAAAAAAAA | 65,875 | 81,000 | – | – | – | –
BMD576_PapG-DSF K172A_DAF-GPI: monovalent PapG modRNA LNP; RNA construct SEQ ID NO: 64 (nucleic acid, modRNA in LNP) AGGAGGACUGGUCGAACCUGCAUAGUGAUCAUAAGGUCAGCAUAGCCACCAUGGAGACCGACACCCUCCUGCUGUGGGUGCUGUUACUGUGGGUGCCCGGUAGCACCGGCUGGAACAACAUCGUGUUCUACAGCCUGGGCAACGUGAACAGCUACCAAGGCGGCAACGUGGUGAUCACACAGAGACCUCAGUUCAUCACAAGCUGGAGACCCGGCAUCGCCACCGUGACCUGGAAUCAGUGCAACGGCCCCGAGUUCGCCGACGGCAGCUGGGCCUACUACAGAGAGUACAUCGCCUGGGUGGUGUUCCCCAAGAAGGUGAUGACCAAGAACGGCUACCCCCUGUUCAUCGAGGUGCACAACAAGGGCAGCUGGAGCGAGGAGAACACCGGCGACAGCGACAGCUACUUCUUCCUGAAGGGCUACAAGUGGGACGAGAGAGCCUUCGACGCCGGCAACCUGUGUCAGAAGCCGGGGGAGACGACCCGGCUUACAGAAAAGUUCAACGACAUCAUCUUCAAGGUGGCCCUGCCCGCCGACCUGCCCCUGGGCGACUACAGCGUGACCAUCCCCUACACAAGCGGCAUUCAGAGACACUUCGCUAGCUACCUGGGCGCUAGAUUCGCCAUCCCCUACAACGUGGCCAAGACCCUGCCUAGAGAGAACGAGAUGCUGUUCCUGUUCAAGAACAUCGGCGGCUGCAGACCUAGCGCUCAGAGCCUGGAGAUCAAGCACGGCGACCUGAGCAUCAACAGCGCCAACAACCACUACGCCGCUCAGACCCUGAGCGUGAGCUGCGACGUGCCCGCCAACAUCAGAUUCAUGCUGCUGAGAUCAACCACCCCCACCUACAGCCACGGCAAGAAGUUCAGCGUGGGCCUGGGCCACGGCUGGGACAGCAUCGUGAGCGUGAACGGCGUGGACACGGGCGAGACCACUAUGCGUUGGUACAAGGCCGGCACACAGAGCCUGACCAUCGGCAGCAGACUGUACGGCGAGAGCAGCAAGAUUCAACCGGGCGUGCUUAGUGGUUCCGCCACCCUGCUGAUGAUUCUGCCCGGCGGAAGCAGCGGCGGCGCCGACGUGCAGAUCAACAUCAGAGGCAACGUGUACAUACCCCCUUCGAGCGGAGGCGGCGGAUCGUCCGGCUCCGGGAGCAGCAGCGGCACCACACGGCUGCUGAGCGGCCACACCUGCUUCACCCUGACCGGCCUGCUGGGCACCCUGGUGACCAUGGGCCUGCUGACCUGAUGAGCUCGCUUUCUUGCUGUCCAAUUUCUAUUAAAGGUUCCUUUGUUCCCUAAGUCCAACUACUAAACUGGGGGAUAUUAUGAAGGGCCUUGAGCAUCUGGAUUCUGCCUAAUAAAAAACAUUUAUUUUCAUUGCAAAAAAAAAAAAAAAAAAAAAAAAAAAAAAAAAAAAAAAAAAAAAAAAAAAAAAAAAAAAAAAAAAAAAAAAAAAAAAAAAA | 69,595 | 27,000 | 50,054 | 54,000 | 141,214 | 81,000
